Measurements: publication PMC12830604

Target: Gαq construct with N-terminal fusion of LgBiT (UniProt P50148)
Test: NanoBiT Gαq-recruitment assay (concentration-response to LTC4)
Conditions: read at log[LTC4, (M)] = -6, the highest concentration; n = 3, mean ± s.e.m.; parent: est. 97; read off a plot; scale: normalized Gq response

Row | Substance | response
1 | CysLT2R with C-terminal SmBiT (wild type, NanoBiT Gαq-recruitment assay) (from UniProt Q9NS75) S241A | 57
2 | CysLT2R with C-terminal SmBiT (wild type, NanoBiT Gαq-recruitment assay) (from UniProt Q9NS75) R136A | 0
